The data set addresses T1, Sh1 (Glycine soja, UniProt I1MNH4 1-230+=TTT+231-511, T232A;internal_change).
T1 sequence: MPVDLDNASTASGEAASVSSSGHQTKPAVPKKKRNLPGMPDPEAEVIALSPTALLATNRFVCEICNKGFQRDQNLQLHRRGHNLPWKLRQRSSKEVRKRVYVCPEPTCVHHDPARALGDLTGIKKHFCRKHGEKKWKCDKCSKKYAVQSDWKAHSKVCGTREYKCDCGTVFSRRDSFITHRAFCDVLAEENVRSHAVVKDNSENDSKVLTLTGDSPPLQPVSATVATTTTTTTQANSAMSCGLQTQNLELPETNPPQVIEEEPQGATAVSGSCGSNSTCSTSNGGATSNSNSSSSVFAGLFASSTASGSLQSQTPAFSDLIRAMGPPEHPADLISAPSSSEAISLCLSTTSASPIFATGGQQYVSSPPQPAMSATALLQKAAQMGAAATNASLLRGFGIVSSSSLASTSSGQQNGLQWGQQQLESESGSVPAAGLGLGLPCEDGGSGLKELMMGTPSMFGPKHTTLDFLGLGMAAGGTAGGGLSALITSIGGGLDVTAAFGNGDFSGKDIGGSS
The data set can be described thus: EMSA. In general terms: In EMSA bound probe runs differently from free probe, usually more slowly.

B1: SHAT1-5 promoter S2-11 (dsDNA)
DNA 1: TTTTAAAATAAAAAAAAAAACAAATAGATATCATGTTATTTTTAAATTATGAAACAAAAT
DNA 2: ATTTTGTTTCATAATTTAAAAATAACATGATATCTATTTGTTTTTTTTTTTATTTTAAAA
B1: the binding result is “binds”.

B2: SHAT1-5 promoter S2-5 (dsDNA)
DNA 1: TCATGTTATTTTTAAATTATGAAACAAAATAATATATAAAATTCTTGCTTTATCACAAGT
DNA 2: ACTTGTGATAAAGCAAGAATTTTATATATTATTTTGTTTCATAATTTAAAAATAACATGA
As to B2, the binding result is reported as “binds”.

B3: SHAT1-5 promoter S2-12 (dsDNA)
DNA 1: AATATATAAAATTCTTGCTTTATCACAAGTCCATTTTGAGGTATTTTTTATTTCTTCGTG
DNA 2: CACGAAGAAATAAAAAATACCTCAAAATGGACTTGTGATAAAGCAAGAATTTTATATATT
For the molecule B3, the binding result is given as “binds”.

B4: SHAT1-5 promoter S2-6 (dsDNA)
DNA 1: CCATTTTGAGGTATTTTTTATTTCTTCGTGTGAAATCTTGTACATTCTTTGGAGATGCTG
DNA 2: CAGCATCTCCAAAGAATGTACAAGATTTCACACGAAGAAATAAAAAATACCTCAAAATGG
Turning to B4, the binding result is on record as “binds”.

The values above are taken from paper PMC11365945.
